In IntAct's records for PubMed 37020021:

Target: T1, ncbp1_human NCBP1 (UniProt Q09161)
T1 sequence: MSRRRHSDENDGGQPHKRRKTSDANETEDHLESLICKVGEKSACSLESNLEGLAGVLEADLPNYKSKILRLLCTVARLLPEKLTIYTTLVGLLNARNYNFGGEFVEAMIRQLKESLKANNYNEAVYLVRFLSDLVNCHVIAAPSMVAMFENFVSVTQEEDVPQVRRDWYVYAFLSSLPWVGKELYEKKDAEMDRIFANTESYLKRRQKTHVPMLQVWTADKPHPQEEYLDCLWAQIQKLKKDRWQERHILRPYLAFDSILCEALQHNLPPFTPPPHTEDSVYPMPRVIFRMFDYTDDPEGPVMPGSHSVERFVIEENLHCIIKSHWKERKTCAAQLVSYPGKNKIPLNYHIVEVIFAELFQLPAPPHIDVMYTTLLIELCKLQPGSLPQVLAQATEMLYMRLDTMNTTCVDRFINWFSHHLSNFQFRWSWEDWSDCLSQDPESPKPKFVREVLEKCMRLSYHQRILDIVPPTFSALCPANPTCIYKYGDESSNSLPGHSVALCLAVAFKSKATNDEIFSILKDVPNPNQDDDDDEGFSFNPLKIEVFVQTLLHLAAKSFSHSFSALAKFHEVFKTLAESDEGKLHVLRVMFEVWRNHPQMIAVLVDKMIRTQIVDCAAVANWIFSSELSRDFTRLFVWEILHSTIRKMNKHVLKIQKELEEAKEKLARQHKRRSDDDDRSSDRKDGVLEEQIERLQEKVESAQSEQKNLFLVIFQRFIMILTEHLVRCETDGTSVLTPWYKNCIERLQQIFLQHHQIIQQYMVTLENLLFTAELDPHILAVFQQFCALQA

Row | effect of a mutation on the interaction | Substance
1 | decreasing interaction strength | THO complex subunit 4 (Homo sapiens) (from UniProt Q86V81) P170A
2 | decreasing interaction strength | THO complex subunit 4 (Homo sapiens) (from UniProt Q86V81) Q165E
3 | decreasing interaction strength | THO complex subunit 4 (Homo sapiens) (from UniProt Q86V81) F115S
4 | decreasing interaction strength | THO complex subunit 4 (Homo sapiens) (from UniProt Q86V81) V169A
